Laboratory results as given in PMC6826516 (2019).

B1: SmBiT-TAZ-Flag (TAZ aa 13-119), wild type [not stated] / LgBiT-TEAD1-Myc (TEAD1 aa 194-411), wild type [not stated] (parent complex)
chain 1: PGQQVIHVTQDLDTDLEALFNSVMNPKPSSWRKKILPESFFKEPDSGSHSRQSSTDSSGGHPGPRLAGGAQHVRSHSSPASLQLGTGAGAAGSPAQQHAHLRQQSYD
chain 2: RSIGTTKLRLVEFSAFLEQQRDPDSYNKHLFVHIGHANHSYSDPLLESVDIRQIYDKFPEKKGGLKELFGKGPQNAFFLVKFWADLNCNIQDDAGAFYGVTSQYESSENMTVTCSTKVCSFGKQVVEKVETEYARFENGRFVYRINRSPMCEYMINFIHKLKHLPEKYMMNSVLENFTILLVVTNRDTQETLLCMACVFEVSNSEHGAQHHIYRLVKD

Variants of: B1
Test: NanoBiT assay (split-luciferase biosensor) in lysates of transfected HEK293T cells; 48 h after transfection; equal amounts of each biosensor plasmid; read off a plot

Variant | response
chain 1 W31A, chain 1 K34A, chain 1 L36A, chain 1 S39A, chain 1 F40A, chain 1 F41A | ~430 fold over LgBiT-TEAD1 alone
